Measured values from US8901081B2, “Uses of GRS proteins or fragments thereof” (SNU R&DB Foundation, priority 2008, dated 2014).

Legend:
Type in all cases: cell-based
[1] = test system: MAPKs (ERK, p38 MAPK, Jun N-terminal kinase) in HeLa cells; assay: Effect on MAPKs (immunoblotting of total and phosphorylated MAPKs)
Description: HeLa cells were cultured on a 6-well plate for 12 hours. After washing 2 times, the cells were allowed to stand in serum-starved DMEM for 3 hours. Then, the cells were cultured with GRS protein (150 nM) or TNF-α (15 ng/mL) for 10, 30, 60, 90 or 120 minutes, and then washed 2 times with cold phosphate buffer. The protein was extracted with 25 mM Tris-HCl (pH 7.4) lysis buffer containing 150 mM NaCl, 1 mM EDTA, 1 mM sodium orthovanadate, 20 mM sodium fluoride, 12 mM β-glycerophosphate, 10% glycerol, 1% Triton X-100 and protease inhibitor, separated by loading on 10% SDS-PAGE, and then transferred to polyvinylidene difluoride (PVDF) membrane (Millipore). Then, immunoblotting was performed using antibodies specific total MAPKs and phosphorylated MAPKs.

[2] = test system: Bax, Bcl-2 and cytochrome C in HeLa cells; assay: Intracellular level of Bax, Bcl-2 and cytochrome C (Western blotting); details: 150 nM GRS
Description: Also, in order to investigate whether the GRS-induced apoptosis is related with mitochondria, the intracellular level of Bax, Bcl-2 and cytochrome C was examined. First, HeLa cells were cultured with 150 nM GRS for a predetermined time. The cells were then collected, resuspended in 20 mM HEPES (pH 7.5) storage buffer containing 10 mM KCl, 1.5 mM MgCl2, 0.5 mM EDTA, 1 mM DTT and protease inhibitor (Calbiochem), allowed to stand on ice for 5 minutes, and then homogenized for 6 cycles. Then, after centrifuging at 10,000 g for 10 minutes, protein was separated from the supernatant using 12% SDS-PAGE and transferred to PVDF membrane. Then, Western blotting was performed using cytochrome C or anti-tubulin antibody. […] To be concluded, GRS has pro-apoptotic activity in the HeLa cells.

[3] = test system: BV2 and SH-SY5Y neural cells, macrophage RAW cells; assay: Anticancer activity by FACS (sub-G1 dead cells), neural and immune cells; details: GRS protein 100 nM; FIG. 5
Description: (§1) HeLa, A549, HCT+/− and HCT+/+ cancer cells, BV2 and SH-SY5Y neural cells, human skin fibroblast HSF cells, and macrophage RAW cells were placed on a 35-mm dish, and cultured for 18 hours. The cell culture was washed with serum-starved medium (1 mL), treated with GRS protein (0 or 100 nM), heated GRS protein (100 nM) or 1 μg/mL Adriamycin, and further treated with trypsin EDTA. The cells were isolated and centrifuged at a rate of 500 g for 10 minutes. After decanting the supernatant, the cells were resuspended in cold PBS (0.3 mL). After adding cold 100% EtOH (0.7 mL) and mixing for 5 seconds, the mixture was incubated at −20° C. overnight. The cell culture was centrifuged at a rate of 500 g at 4° C. for 10 minutes. After decanting the supernatant, adding cold PBS (1 mL) and mixing for 5 seconds, the mixture was centrifuged again at a rate of 500 g at 4° C. for 10 minutes. After decanting the supernatant, the cells were resuspended in P.I solution (500 μL) and incubated at room temperature for 20 minutes. Then, the number of dead cells was counted by FACS by measuring the quantity of DNA fragments resulting from apoptosis. The result is shown in FIG. 5 (The cells in sub-G1 phases were considered as dead cells).

[4] = test system: p38 kinase in HCT+/− cancer cells; assay: Apoptosis mechanism: p38/ERK Western blotting; details: 100 nM GRS protein, 0-120 minutes; FIG. 8
Description: HCT+/− cancer cells were placed on a […]. 18 hours later, after washing with serum-starved medium, the cells were treated with 100 nM GRS protein or 2 μg/mL lipopolysaccharide (LPS) in serum-starved medium (1 mL). After culturing for 0, 10, 30, 60, 90 or 120 minutes, the cells were collected using a lifter. The cells were centrifuged at 3,000 rpm for 5 minutes and, after decanting the supernatant, adding lysis buffer (200 μL) containing 0.5% Triton X-100, 2 mM EDTA, 10% glycerol, 150 mM NaCl, 25 mM Tris-HCl (pH 7.4) and protease inhibitor, and mixing at 4° C. for 30 minutes, the mixture was centrifuged at a rate of 12,000 rpm at 4° C. for 15 minutes and the protein was quantitated by the Bradford method. The collected protein was separated by loading on 10% SDS-PAGE and Western blotting was carried out using anti-p-p38, anti-p38, anti-p-ERK, anti-ERK and anti-tubulin antibodies.

[5] = test system: HeLa, A549, HCT+/− and H460 cancer cells; assay: Anticancer activity by MTT assay, cancer cells; details: His-GRS protein 50, 100 or 150 nM, 24 hours, FIG. 6
Description: (§2) HeLa, A549, HCT+/− and H460 cancer cells, H293 kidney cells, SH-SY5Y neural cells, human skin fibroblast HSF cells, and macrophage RAW cells were placed on a 96-well plate, cultured for 18 hours, washed with serum-starved medium, treated with His-GRS protein (0, 50, 100 or 150 nM), heated His-GRS protein (150 nM) or 2 μg/mL Adriamycin in serum-starved medium (100 μL), cultured for 24 hours, treated with 5 mg/mL MTT (10 μL per each well), and then cultured for 2 hours. After decanting the supernatant using a syringe and treating with DMSO (100 μL per each well), the cells were cultured for 10 minutes and absorbance was measured at 570 nm using an ELISA reader.

[6] = test system: H293 kidney cells, SH-SY5Y neural cells, macrophage RAW cells; assay: Anticancer activity by MTT assay, kidney, neural and immune cells; details: His-GRS protein 50, 100 or 150 nM, 24 hours; FIG. 6
Description: as §2

[7] = test system: HeLa and HCT+/− cancer cells, normal 293 cells and macrophage RAW cells; assay: Attachment of biotinylated GRS protein to cells (Western blotting with streptavidin-HRP); details: 0, 1, 2, 5 or 10 μg biotinylated GRS protein; FIG. 4
Description: HeLa and HCT+/− cancer cells, normal 293 cells and macrophage RAW cells were placed on a 35-mm dish, cultured for 18 hours, and then washed with serum-starved medium (1 mL). Then, after adding 0, 1, 2, 5 or 10 μg of biotinylated GRS protein, proteins were collected from the whole cell lysate in the same manner as in Example 1. Then, Western blotting was performed using streptavidin-HRP and anti-tubulin antibodies.

[8] = test system: HeLa, A549, HCT+/− and HCT+/+ cancer cells; assay: Anticancer activity by FACS (sub-G1 dead cells), cancer cells; details: GRS protein 100 nM, FIG. 5
Description: as §1

[9] = test system: caspase 3 in HCT+/− cancer cells; assay: Caspase 3 assay (Western blotting); details: His-GRS protein 50, 100 or 150 nM, 24 hours, FIG. 7
Description: HCT+/− cancer cells or macrophage RAW cells were placed on a 35-mm dish. 18 hours later, after washing with serum-starved medium, the cells were treated with His-GRS protein (0, 50 nM, 100 nM or 150 nM) or heated His-GRS protein (150 nM) in serum-starved medium (1 mL). After culturing for 24 hours, the cells were collected using a lifter. The cells were centrifuged at 3000 rpm for 5 minutes and, after decanting the supernatant, adding lysis buffer (200 μL) containing 0.5% Triton X-100, 2 mM EDTA, 10% glycerol, 150 mM NaCl, 25 mM Tris-HCl (pH 7.4) and protease inhibitor, and mixing at 4° C. for 30 minutes, the mixture was centrifuged at a rate of 12,000 rpm at 4° C. for 15 minutes and the protein was quantitated by the Bradford method. The collected protein was separated by loading on 15% SDS-PAGE and Western blotting was carried out using anti-caspase 3 and anti-tubulin antibodies.

[10] = test system: HeLa cells and RAW 264.7 cells; assay: Cell viability with GST-GRS fragments (MTT assay); details: GST-GRS fragments added to HeLa and RAW 264.7 cells; FIG. 15
Description: In order to investigate the domain of the GRS protein related to cytokine activity, four GRS fragments of SEQ ID NOs. 3 to 6 (FIGS. 13 and 14) were prepared and they were expressed with the GST fusion protein. […] Then, cell viability was examined.

[11] = GRS protein 150 nM, 10-120 minutes, FIG. 9

TNF-α [reference compound]
phosphorylation of all the MAPKs ([1]; TNF-α 15 ng/mL, FIG. 10): increased in 30 minutes

B1: GRS protein: glycyl-tRNA synthetase (GRS) protein, amino acid sequence of SEQ ID NO. 1 (protein, listed as Homo sapiens)
chain: MDGAGAEEVLAPLRLAVRQQGDLVRKLKEDKAPQVDVDKAVAELKARKRVLEAKELALQPKDDIVDRAKMEDTLKRRFFYDQAFAIYGGVSGLYDFGPVGCALKNNIIQTWRQHFIQEEQILEIDCTMLTPEPVLKTSGHVDKFADFMVKDVKNGECFRADHLLKAHLQKLMSDKKCSVEKKSEMESVLAQLDNYGQQELADLFVNYNVKSPITGNDLSPPVSFNLMFKTFIGPGGNMPGYLRPETAQGIFLNFKRLLEFNQGKLPFAAAQIGNSFRNEISPRSGLIRVREFTMAEIEHFVDPSEKDHPKFQNVADLHLYLYSAKAQVSGQSARKMRLGDAVEQGVINNTVLGYFIGRIYLYLTKVGISPDKLRFRQHMENEMAHYACDCWDAESKTSYGWIEIVGCADRSCYDLSCHARATKVPLVAEKPLKEPKTVNVVQFEPSKGAIGKAYKKDAKLVMEYLAICDECYITEIEMLLNEKGEFTIETEGKTFQLTKDMINVKRFQKTLYVEEVVPNVIEPSFGLGRIMYTVFEHTFHVREGDEQRTFFSFPAVVAPFKCSVLPLSQNQEFMPFVKELSEALTRHGVSHKVDDSSGSIGRRYARTDEIGVAFGVTIDFDTVNKTPHTATLRDRDSMRQIRAEISELPSIVQDLANGNITWADVEARYPLFEGQETGKKETIEE
modifications: His tag; PEPTIDE (1)..(685) full length of GRS
intracellular level of Bax ([2]; FIG. 11): did not affect
intracellular level of Bcl-2 ([2]; FIG. 11): reduction
secretion of cytochrome C ([2]; FIG. 12): increased
effect on neural and immune cells (dead cells in sub-G1 counted by FACS) [3]: little effect
effect on p38 kinase-related mechanism [4]: had an effect on the p38 kinase-related mechanism
killing of cancer cells (cell viability by MTT assay) [5]: specifically killed
effect on kidney, neural and immune cells (cell viability by MTT assay) [6]: little effect
attachment of GRS protein to the surface of cells [7]: attached to the surface of other cells
killing of cancer cells (dead cells in sub-G1 counted by FACS) [8]: specifically killed
caspase 3 in active form [9]: caspase 3 in active form was observed
level of phosphorylated ERK [1, 11]: increased with time
level of phosphorylated p38 MAPK [1, 11]: increased with time

B2: F4: 511st through 685th amino acids of the full-length GRS, including the C-terminal anticodon-binding domain (protein, listed as Homo sapiens)
chain: LYVEEVVPNVIEPSFGLGRIMYTVFEHTFHVREGDEQRTFFSFPAVVAPFKCSVLPLSQNQEFMPFVKELSEALTRHGVSHKVDDSSGSIGRRYARTDEIGVAFGVTIDFDTVNKTPHTATLRDRDSMRQIRAEISELPSIVQDLANGNITWADVEARYPLFEGQETGKKETIEE
modifications: DOMAIN (1)..(175) Fragment 4 (511-685aa)
pro-apoptotic cytokine activity (cell viability) [10]: exhibited pro-apoptotic cytokine activity
